Patent US20170226175A1 (HANMI PHARM, published 2017)

How the values were obtained:
Test in all cases: SPR (BIACORE 3000), hGLP-1R/GST amine-coupled to CM5 chip, 1:1 Langmuir fit
[1] = target: beta-hydroxy imidazopropionyl-exendin-4 (HY-exendin-4)
Experimental: (§1) The binding activity of the GLP-1 receptor and the insulinotropic peptide derivative with a modified N-terminal charge were measured using a surface plasmon resonance (SPR) apparatus (BIACORE 3000, GE Healthcare).
(§2) The GLP-1 receptor was expressed from CHO-DG44 cells in hGLP-1R/GST form. The expressed hGLP-1R/GST was immobilized to a CM5 chip by amine coupling. To the hGLP-1R/GST-immobilized CM5 chip, the insulinotropic peptide derivatives with a modified N-terminal charge were diluted by concentration and then added to determine the binding activity with the GLP-1 receptor.

[2] = target: DA-exendin-4-propyl-amide
Experimental: as §1, §2

[3] = target: desamino-histidyl-exendin-4 (DA-exendin-4)
Experimental: as §1, §2

[4] = target: imidazoacetyl-exendin-4 (CA-exendin-4)
Experimental: as §1, §2

[5] = target: Native exendin-4 (exenatide: BYETTA)
Experimental: as §1, §2

B1: hGLP-1R/GST (receptor)
chain: RPQGATVSLWETVQKWREYRRQCQRSLTEDPPPATDLFCNRTFDEYACWPDGEPGSFVNVSCPWYLPWASSVPQGHVYRFCTAEGLWLQKDNSSLPWRDLSECEESKRGERSSPEEQLLFLY
notes: Expressed from CHO-DG44 cells and immobilized on a CM5 chip by amine coupling; also called GLP-1 receptor; GLP-1 receptor in hGLP-1R/GST form; not shown: GST (glutathione S-transferase) fusion partner
Kd [1]: 42.7 nM | koff [1]: 0.00383 s⁻¹ | kon [1]: 90000 M⁻¹ s⁻¹ | Kd [2]: 32.6 nM | koff [2]: 0.00335 s⁻¹ | kon [2]: 104000 M⁻¹ s⁻¹ | Kd [3]: 32.2 nM | koff [3]: 0.00365 s⁻¹ | kon [3]: 113000 M⁻¹ s⁻¹ | Kd [4]: 26.3 nM | koff [4]: 0.00315 s⁻¹ | kon [4]: 120000 M⁻¹ s⁻¹ | Kd [5]: 1.4 nM | koff [5]: 0.000526 s⁻¹ | kon [5]: 370000 M⁻¹ s⁻¹
